B1: HA-tagged SREBF1 (wild type), expressed in C4-2B cells [not stated] / KAT2A/GCN5, endogenous [human (endogenous in C4-2B, LAPC4)] (parent)
chain 1: MDEPPFSEAALEQALGEPCDLDAALLTDIEDMLQLINNQDSDFPGLFDPPYAGSGAGGTDPASPDTSSPGSLSPPPATLSSSLEAFLSGPQAAPSPLSPPQPAPTPLKMYPSMPAFSPGPGIKEESVPLSILQTPTPQPLPGALLPQSFPAPAPPQFSSTPVLGYPSPPGGFSTGSPPGNTQQPLPGLPLASPPGVPPVSLHTQVQSVVPQQLLTVTAAPTAAPVTTTVTSQIQQVPVLLQPHFIKADSLLLTAMKTDGATVKAAGLSPLVSGTTVQTGPLPTLVSGGTILATVPLVVDAEKLPINRLAAGSKAPASAQSRGEKRTAHNAIEKRYRSSINDKIIELKDLVVGTEAKLNKSAVLRKAIDYIRFLQHSNQKLKQENLSLRTAVHKSKSLKDLVSACGSGGNTDVLMEGVKTEVEDTLTPPPSDAGSPFQSSPLSLGSRGSGSGGSGSDSEPDSPVFEDSKAKPEQRPSLHSRGMLDRSRLALCTLVFLCLSCNPLASLLGARGLPSPSDTTSVYHSPGRNVLGTESRDGPGWAQWLLPPVVWLLNGLLVLVSLVLLFVYGEPVTRPHSGPAVYFWRHRKQADLDLARGDFAQAAQQLWLALRALGRPLPTSHLDLACSLLWNLIRHLLQRLWVGRWLAGRAGGLQQDCALRVDASASARDAALVYHKLHQLHTMGKHTGGHLTATNLALSALNLAECAGDAVSVATLAEIYVAAALRVKTSLPRALHFLTRFFLSSARQACLAQSGSVPPAMQWLCHPVGHRFFVDGDWSVLSTPWESLYSLAGNPVDPLAQVTQLFREHLLERALNCVTQPNPSPGSADGDKEFSDALGYLQLLNSCSDAAGAPAYSFSISSSMATTTGVDPVAKWWASLTAVVIHWLRRDEEAAERLCPLVEHLPRVLQESERPLPRAALHSFKAARALLGCAKAESGPASLTICEKASGYLQDSLATTPASSSIDKAVQLFLCDLLLVVRTSLWRQQQPPAPAPAAQGTSSRPQASALELRGFQRDLSSLRRLAQSFRPAMRRVFLHEATARLMAGASPTRTHQLLDRSLRRRAGPGGKGGAVAELEPRPTRREHAEALLLASCYLPPGFLSAPGQRVGMLAEAARTLEKLGDRRLLHDCQQMLMRLGGGTTVTSS
chain 2: MAEPSQAPTPAPAAQPRPLQSPAPAPTPTPAPSPASAPIPTPTPAPAPAPAAAPAGSTGTGGPGVGSGGAGSGGDPARPGLSQQQRASQRKAQVRGLPRAKKLEKLGVFSACKANETCKCNGWKNPKPPTAPRMDLQQPAANLSELCRSCEHPLADHVSHLENVSEDEINRLLGMVVDVENLFMSVHKEEDTDTKQVYFYLFKLLRKCILQMTRPVVEGSLGSPPFEKPNIEQGVLNFVQYKFSHLAPRERQTMFELSKMFLLCLNYWKLETPAQFRQRSQAEDVATYKVNYTRWLCYCHVPQSCDSLPRYETTHVFGRSLLRSIFTVTRRQLLEKFRVEKDKLVPEKRTLILTHFPKFLSMLEEEIYGANSPIWESGFTMPPSEGTQLVPRPASVSAAVVPSTPIFSPSMGGGSNSSLSLDSAGAEPMPGEKRTLPENLTLEDAKRLRVMGDIPMELVNEVMLTITDPAAMLGPETSLLSANAARDETARLEERRGIIEFHVIGNSLTPKANRRVLLWLVGLQNVFSHQLPRMPKEYIARLVFDPKHKTLALIKDGRVIGGICFRMFPTQGFTEIVFCAVTSNEQVKGYGTHLMNHLKEYHIKHNILYFLTYADEYAIGYFKKQGFSKDIKVPKSRYLGYIKDYEGATLMECELNPRIPYTELSHIIKKQKEIIKKLIERKQAQIRKVYPGLSCFKEGVRQIPVESVPGIRETGWKPLGKEKGKELKDPDQLYTTLKNLLAQIKSHPSAWPFMEPVKKSEAPDYYEVIRFPIDLKTMTERLRSRYYVTRKLFVADLQRVIANCREYNPPDSEYCRCASALEKFFYFKLKEGGLIDK

The test covers variants of B1. The experiment in a line: co-immunoprecipitation (anti-HA affinity gel, immunoblot with KAT2A antibody), band quantification. The settings on record: with KAT2A/GCN5, endogenous [human (endogenous in C4-2B, LAPC4)]; C4-2B cells; + Abi; parent: 1. For orientation: Immunoblotting shows a protein as a band on a membrane.
For chain 1 Y673A Y951A, the response came to 0.01.

These data come from paper PMC10256812.
